We go through six substances from patent US12385050B1.

The target in experiment [1] is endotoxin (endotoxin concentrate; δ-endotoxin of Bacillus thuringiensis).
The target is the same in experiment [2]. This is another data set of the same source.
Experiment [3] shares this target. The source holds these as a separate data set.

“recombinant Citrullus colocynthis dehydrin CcDHN” gave an RPW adult mortality rate, endotoxin solution with the LEA protein, 42 °C, 10 days in experiment [1] of 77.6%. This substance had an RPW larval mortality rate, endotoxin solution with the LEA protein, 42 °C, 10 days in experiment [2] of 89.7%. The same substance displayed an RPW egg hatching rate, endotoxin solution with the LEA protein at 1:40, heat stress 42 °C, day 5 in experiment [3] of 15%.

As for “recombinant Phoenix dactylifera LEA2 protein PdLEA2.2”, the RPW adult mortality rate, endotoxin solution with the LEA protein, 42 °C, 10 days in experiment [1] is 75%. Moreover, the RPW larval mortality rate, endotoxin solution with the LEA protein, 42 °C, 10 days in experiment [2] was 84.7%. This substance registered an RPW egg hatching rate, endotoxin solution with the LEA protein at 1:40, heat stress 42 °C, day 5 in experiment [3] of 11%.

In turn, “recombinant Phoenix dactylifera LEA2 protein PdLEA2.3” came in with an RPW adult mortality rate, endotoxin solution with the LEA protein, 42 °C, 10 days in experiment [1] of 73.6%. In addition, the RPW larval mortality rate, endotoxin solution with the LEA protein, 42 °C, 10 days in experiment [2] is 83.3%. The same substance gave an RPW egg hatching rate, endotoxin solution with the LEA protein at 1:40, heat stress 42 °C, day 5 in experiment [3] of 15%.

Consider “recombinant Phoenix dactylifera LEA2 protein PdLEA2.4”, for which the RPW adult mortality rate, endotoxin solution with the LEA protein, 42 °C, 10 days in experiment [1] was 73.3%. The substance further came in with an RPW larval mortality rate, endotoxin solution with the LEA protein, 42 °C, 10 days in experiment [2] of 83.6%. Moreover, the RPW egg hatching rate, endotoxin solution with the LEA protein at 1:40, heat stress 42 °C, day 5 in experiment [3] amounted to 11.3%.

“recombinant Phoenix dactylifera dehydrin PdDHN” showed an RPW adult mortality rate, endotoxin solution with the LEA protein, 42 °C, 10 days in experiment [1] of 75%. The same substance returned an RPW larval mortality rate, endotoxin solution with the LEA protein, 42 °C, 10 days in experiment [2] of 85.6%. This substance had an RPW egg hatching rate, endotoxin solution with the LEA protein at 1:40, heat stress 42 °C, day 5 in experiment [3] of 11.3%.

On to “recombinant Prosopis cineraria dehydrin PcDHN”, for which, in experiment [1], the RPW adult mortality rate, endotoxin solution with the LEA protein, 42 °C, 10 days was found to be 76.3%. Besides, the RPW larval mortality rate, endotoxin solution with the LEA protein, 42 °C, 10 days in experiment [2] came out at 88%. The RPW egg hatching rate, endotoxin solution with the LEA protein at 1:40, heat stress 42 °C, day 5 in experiment [3] was 13.6%.
